This is an account of results in patent publication US20130323259A1 (Novo Nordisk, published 2013).

Usually Kd stands for the constant that tells how readily two partners part at equilibrium. By koff is commonly meant a measure of how fast the partners let go of each other. In general, kon refers to a measure of how fast the partners come together.

Experiment [1] addresses T1, human IL-21 (hIL-21 protein; recombinant human IL-21) (human, UniProt Q9HBE4 25-162, limits assumed). Nature of the experiment: SPR (Biacore), average of experiments. For orientation: SPR reads the build-up and loss of mass on a sensor chip optically.
For experiment [2], the target named is T1, human IL-21 (hIL-21 protein; …). Nature of the experiment: SPR (Biacore), mAb captured by anti-Fc, hIL-21 as analyte; experiment no 1.
For experiment [3] the target is unchanged. Nature of the experiment: cell-based or functional assay.
The target is the same in experiment [4]. Nature of the experiment: SPR, Biacore T200, mAb captured by anti-human Fc, hIL-21 as analyte; exp no 2. The procedure: (§1) Anti-human Fc monoclonal from Biacore human Fc capture kit was immobilized onto flow cells of a CM4 sensor chip according to the manufacturer's instructions. […] The CM4 surface was regenerated after each injection cycle of analyte via two injections of 3M MgCl₂ at 50 μl/min.
(§2) In order to receive kinetic data, such as ka (association rate), kd (dissociation rate) and KD (equilibrium dissociation constant), data analysis was performed using the Biacore T200 evaluation software 1.0.

The target is the same in experiment [5]. Nature of the experiment: SPR (Biacore), mAb captured by anti-Fc, hIL-21 as analyte; experiment no 2.
For experiment [6] the target is unchanged. Nature of the experiment: SPR, Biacore T200, mAb captured by anti-human Fc, hIL-21 as analyte; exp no 1. The procedure:
as §1, §2

The target of experiment [7] is hIL-21: human recombinant IL-21, corresponding to residues 30-162 and with an N-terminal Methionine as … (human, UniProt Q9HBE4 30-162). Nature of the experiment: HX-MS, 4 µM hIL-21 with 2.4 µM mAb.
The target in experiment [8] is T1, human IL-21 (hIL-21 protein; …). Nature of the experiment: SPR, Biacore T200, mAb captured by anti-human Fc, hIL-21 as analyte; exp no 1; Exp no 1, first of the two exp-1 rows for 0005.
The target is the same in experiment [9]. Nature of the experiment: cell-based or functional assay. This is another data set of the same source.
The target is the same in experiment [10]. Nature of the experiment: SPR, Biacore T200, average of two experiments. The method, then: as §1, §2
The target is the same in experiment [11]. Nature of the experiment: SPR (Biacore), mAb captured by anti-Fc, hIL-21 as analyte; experiment no 6.

Values joined by “and” are separate entries in the source; they are usually repeats but may differ in a detail not shown here. Equal entries are not always repeated. Some results are limits rather than exact numbers.

T1 sequence (Q9HBE4 25-162 limits assumed): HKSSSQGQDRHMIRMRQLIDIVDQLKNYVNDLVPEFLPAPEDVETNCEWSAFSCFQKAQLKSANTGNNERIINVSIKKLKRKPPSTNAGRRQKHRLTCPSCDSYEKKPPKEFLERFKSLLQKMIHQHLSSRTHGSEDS
Chain of hIL-21: human recombinant IL-21, corresponding to residues 30-162 and with an N-terminal Methionine as … (Q9HBE4 other isoform, or with tags, fused parts or gaps): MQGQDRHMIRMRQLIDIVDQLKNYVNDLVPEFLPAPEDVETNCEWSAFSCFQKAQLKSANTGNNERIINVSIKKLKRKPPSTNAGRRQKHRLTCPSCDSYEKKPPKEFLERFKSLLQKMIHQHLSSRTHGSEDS

B1: monoclonal antibody NNC 0114-0005 (antibody, human IgG1, kappa, V domains shown)
VH: QVQLVESGGGVVQPGRSLRLSCAASGFTFSSYGMHWVRQAPGKGLEWVAFIWYDGSDKYYADSVKGRFTISRDNSKNTLYLQMNSLRAEDTAVYYCARDGDSSDWYGDYYFGMDVWGQGTTVTVSS
VL: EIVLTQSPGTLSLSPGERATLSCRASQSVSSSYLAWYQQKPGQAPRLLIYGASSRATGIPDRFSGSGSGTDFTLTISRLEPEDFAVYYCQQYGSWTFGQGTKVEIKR
notes: also called NNC114-0005
For B1, the dissociation constant (Kd) in [1] was not above 1 pM; in experiment [2] it was 0.58 pM and 0.72 pM; in experiment [4], 0.17 pM; in experiment [5], 0.17 pM; in experiment [6], 0.58 pM and 0.72 pM. Further, the koff is 1e-05 s⁻¹ in experiment [1]; 9.5e-06 s⁻¹ and 1.1e-05 s⁻¹ in [2]; 1.1e-05 s⁻¹ in [4]; 1.1e-05 s⁻¹ in experiment [5]; 9.5e-06 s⁻¹ and 1.1e-05 s⁻¹ in [6]. For the same molecule, the kon is 1.6e+07 M⁻¹ s⁻¹ and 1.5e+07 M⁻¹ s⁻¹ in [2]; 6.6e+07 M⁻¹ s⁻¹ in experiment [4]; 6.6e+07 M⁻¹ s⁻¹ in experiment [5]; 1.5e+07 M⁻¹ s⁻¹ in experiment [6]; 1.6e+07 M⁻¹ s⁻¹ in [8]. Besides, the “IC50 (nM), B cell proliferation, Donor 1 (0114-0000-0006)” value in experiment [3] was 0.82 nM. Moreover, the “IC50 (nM), B cell proliferation, Donor 2 (0114-0000-0006)” value in [3] turned out to be 0.83 nM. The “IC50 (nM), B cell proliferation, Donor 3 (0114-0000-0006)” value in experiment [3] was 0.57 nM. Besides, the “IC50 (nM), B cell proliferation, Donor 4 (0114-0000-0006)” value in experiment [3] was determined as 1.33 nM. Moreover, the “amides protected from exchange in region E93-V98 at 100 sec” value (“amides protected from exchange” for short) in experiment [7] is approximately 2 amides.

B2: 0114-0000-0043, light chain R55K variant of mAb 0006 (NNC 0114-0005) (antibody, human IgG1, kappa, V domains shown)
VH: QVQLVESGGGVVQPGRSLRLSCAASGFTFSSYGMHWVRQAPGKGLEWVAFIWYDGSDKYYADSVKGRFTISRDNSKNTLYLQMNSLRAEDTAVYYCARDGDSSDWYGDYYFGMDVWGQGTTVTVSS
VL: EIVLTQSPGTLSLSPGERATLSCRASQSVSSSYLAWYQQKPGQAPRLLIYGASSKATGIPDRFSGSGSGTDFTLTISRLEPEDFAVYYCQQYGSWTFGQGTKVEIKR
B2: in [3], the “IC50 (nM), B cell proliferation, Donor 2” value stood at 0.3 nM and the “IC50 (nM), B cell proliferation, Donor 4” value was found to be 1.35 nM. For the same molecule, the “Bioactivity as % of RM (NCC0114-0000-0006), NK-92 bioassay” value (“Bioactivity as % of RM” for short) in [9] came to 89.8%.

B3: 0114-0000-0041, light chain S54A variant of mAb 0006 (NNC 0114-0005) (antibody, human IgG1, kappa, V domains shown)
VH: QVQLVESGGGVVQPGRSLRLSCAASGFTFSSYGMHWVRQAPGKGLEWVAFIWYDGSDKYYADSVKGRFTISRDNSKNTLYLQMNSLRAEDTAVYYCARDGDSSDWYGDYYFGMDVWGQGTTVTVSS
VL: EIVLTQSPGTLSLSPGERATLSCRASQSVSSSYLAWYQQKPGQAPRLLIYGASARATGIPDRFSGSGSGTDFTLTISRLEPEDFAVYYCQQYGSWTFGQGTKVEIKR
As for B3, in experiment [3], the “IC50 (nM), B cell proliferation, Donor 1” value was determined as 1.15 nM and the “IC50 (nM), B cell proliferation, Donor 3” value came out at 1.12 nM. Further, the “Bioactivity as % of RM” value in experiment [9] was determined as 83.9%. Further, in experiment [7], the “amides protected from exchange” value was approximately 2 amides.

B4: NNC-0114-0044, Light-chain residue 57 Thr to Ser mutated form (L:T57S) of NNC 0114-0005 (antibody, human IgG1, kappa, V domains shown)
VH: QVQLVESGGGVVQPGRSLRLSCAASGFTFSSYGMHWVRQAPGKGLEWVAFIWYDGSDKYYADSVKGRFTISRDNSKNTLYLQMNSLRAEDTAVYYCARDGDSSDWYGDYYFGMDVWGQGTTVTVSS
VL: EIVLTQSPGTLSLSPGERATLSCRASQSVSSSYLAWYQQKPGQAPRLLIYGASSRASGIPDRFSGSGSGTDFTLTISRLEPEDFAVYYCQQYGSWTFGQGTKVEIKR
As to B4, in experiment [3], the “IC50 (nM), B cell proliferation, Donor 2” value is 0.8 nM and the “IC50 (nM), B cell proliferation, Donor 4” value came out at 1.17 nM. For the same molecule, in experiment [4], the Kd was found to be 0.24 pM, the koff is 1.3e-05 s⁻¹ and the kon is 5.4e+07 M⁻¹ s⁻¹. Moreover, in experiment [10], the equilibrium dissociation constant (Kd) was not above 1 pM and the dissociation rate constant (koff) is 1e-05 s⁻¹. Moreover, the “Bioactivity as % of RM” value in experiment [9] is 77.8%. Further, in experiment [6], the Kd is not above 0.46 pM, the koff is not above 1e-05 s⁻¹ and the kon worked out at 2.2e+07 M⁻¹ s⁻¹.

B5: NNCD-0114-0000-0038, Heavy-chain residue 31 Ser to Ala mutated form (H:S31A) of NNC 0114-0005 (antibody, human IgG1, kappa, V domains shown)
VH: QVQLVESGGGVVQPGRSLRLSCAASGFTFSAYGMHWVRQAPGKGLEWVAFIWYDGSDKYYADSVKGRFTISRDNSKNTLYLQMNSLRAEDTAVYYCARDGDSSDWYGDYYFGMDVWGQGTTVTVSS
VL: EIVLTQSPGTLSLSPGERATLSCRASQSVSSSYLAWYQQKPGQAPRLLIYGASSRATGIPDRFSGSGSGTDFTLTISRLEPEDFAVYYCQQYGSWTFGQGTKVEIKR
As to B5, in [3], the “IC50 (nM), B cell proliferation, Donor 1” value was 1.18 nM and the “IC50 (nM), B cell proliferation, Donor 3” value was 1.21 nM. Besides, in experiment [4], the dissociation constant Kd was 0.09 pM, the dissociation rate constant (koff) was determined as 6.8e-06 s⁻¹ and the on-rate (kon) is 7.5e+07 M⁻¹ s⁻¹. For the same molecule, in [10], the Kd is not above 1 pM and the dissociation rate constant (koff) was determined as 1e-05 s⁻¹. The “Bioactivity as % of RM” value in experiment [9] was found to be 89.2%. Moreover, in experiment [6], the equilibrium dissociation constant (Kd) is 0.43 pM and 0.42 pM; the off-rate (koff) was 1.2e-05 s⁻¹ and 1.1e-05 s⁻¹; the kon stood at 2.7e+07 M⁻¹ s⁻¹. Moreover, the “amides protected from exchange” value in experiment [7] is approximately 2 amides.

B6: monoclonal antibody NNC 0114-0015 (antibody, V domains shown)
VH: QVQLVESGGGVVQPGRSLRLSCAASGFTFSTYGMHWVRQAPGKGLEWVAFIWYDGSDKYYADSVKGRFTISRDNSKNTLYLQMNSLRAEDTAVYYCARDGDSSDWYGDYYFGMDVWGQGTTVTVSS
VL: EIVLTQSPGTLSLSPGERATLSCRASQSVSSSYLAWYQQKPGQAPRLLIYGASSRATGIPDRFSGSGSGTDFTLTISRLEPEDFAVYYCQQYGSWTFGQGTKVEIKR
notes: also called NNC114-0015
Regarding B6, in experiment [1], the dissociation constant Kd is not above 1 pM and the koff came to 1e-05 s⁻¹. In [3], the “IC50 (nM), B cell proliferation, Donor 1” value came to 1.23 nM; the “IC50 (nM), B cell proliferation, Donor 2” value was 0.86 nM; the “IC50 (nM), B cell proliferation, Donor 3” value was 1.13 nM; the “IC50 (nM), B cell proliferation, Donor 4” value came out at 0.91 nM. Further, in [11], the equilibrium dissociation constant (Kd) was 0.12 pM and 0.18 pM and 0.28 pM; the off-rate (koff) was 6.8e-06 s⁻¹ and 8.9e-06 s⁻¹ and 1.2e-05 s⁻¹; the on-rate constant (kon) is 5.5e+07 M⁻¹ s⁻¹ and 4.9e+07 M⁻¹ s⁻¹ and 4.3e+07 M⁻¹ s⁻¹.

B7: 0114-0000-0039, light chain S53A variant of mAb 0006 (NNC 0114-0005) (antibody, human IgG1, kappa, V domains shown)
VH: QVQLVESGGGVVQPGRSLRLSCAASGFTFSSYGMHWVRQAPGKGLEWVAFIWYDGSDKYYADSVKGRFTISRDNSKNTLYLQMNSLRAEDTAVYYCARDGDSSDWYGDYYFGMDVWGQGTTVTVSS
VL: EIVLTQSPGTLSLSPGERATLSCRASQSVSSSYLAWYQQKPGQAPRLLIYGAASRATGIPDRFSGSGSGTDFTLTISRLEPEDFAVYYCQQYGSWTFGQGTKVEIKR
In the case of B7, in experiment [3], the “IC50 (nM), B cell proliferation, Donor 1” value was determined as 0.78 nM and the “IC50 (nM), B cell proliferation, Donor 3” value came to 0.92 nM. In addition, in experiment [9], the “Bioactivity as % of RM” value was determined as 95.2%. Moreover, the “amides protected from exchange” value in experiment [7] was approximately 2 amides.

B8: 0114-0000-0040, light chain S53T variant of mAb 0006 (NNC 0114-0005) (antibody, human IgG1, kappa, V domains shown)
VH: QVQLVESGGGVVQPGRSLRLSCAASGFTFSSYGMHWVRQAPGKGLEWVAFIWYDGSDKYYADSVKGRFTISRDNSKNTLYLQMNSLRAEDTAVYYCARDGDSSDWYGDYYFGMDVWGQGTTVTVSS
VL: EIVLTQSPGTLSLSPGERATLSCRASQSVSSSYLAWYQQKPGQAPRLLIYGATSRATGIPDRFSGSGSGTDFTLTISRLEPEDFAVYYCQQYGSWTFGQGTKVEIKR
In the case of B8, in experiment [3], the “IC50 (nM), B cell proliferation, Donor 1” value came to 0.93 nM and the “IC50 (nM), B cell proliferation, Donor 3” value was determined as 1 nM. Further, the “Bioactivity as % of RM” value in experiment [9] was determined as 92.9%. In addition, in [7], the “amides protected from exchange” value is approximately 2 amides.
